We go through one molecule from paper PMC6192581 (2018).

Read-outs that look alike come from different tables or passages of the source.

The target in test [1] is T1, LDL (apolipoprotein B-100) (Homo sapiens, UniProt P04114).
Test [2] addresses T1, LDL (apolipoprotein B-100). The source holds these as a separate data set.

B1: LDL receptor 1-789 (protein)
chain: not shown
With B1, the Kd (in general, the concentration at which binding is half-saturated) in test [1] is 0.58 nM; in test [2] it was 7.01 nM.
